± gives the standard deviation of the averaged measurements.
What follows are sequences tested on Saccharomyces cerevisiae (assay: protein stability index of tFT-peptide fusion (C-terminal peptide) (PSI (0-1 scale)); higher = more stable (slower turnover)). Conditions: genetic background: wild type; temperature: 37 C.
Protocol: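 MPS profiling in S. cerevisiae of the tFT-X12 degron library: putative degron peptides plus stable controls, 12 aa, fused to the C-terminus of a sfGFP-mCherry timer. Cells are FACS-sorted into 8 mCherry/sfGFP bins and deep-sequenced. PSI runs from 0 (unstable) to 1 (stable). Backgrounds are wild type, das1Δ and doa10Δ at 30 °C, and wild type, das1Δ, cdc34-1 and cdc53-1 at 37 °C; 2-3 technical replicates each.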
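Also: PSI is a weighted mean of sequencing reads over stability bins, variants kept only with over 10 reads, mCherry proximal and sfGFP distal, peptide attached via GGGS linker.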

Sequence | protein stability index
SRRRRLVSKFLA | 0.3 ± 0.0063
SRRSIGAYLFVS | 0.411 ± 0.025
SRSFWHAIVFLA | 0.0963 ± 0.018
SRWMWFDWLRRA | 0.541 ± 0.0019
SSCFLLFRVVWR | 0.412 ± 0.016
SSFDFVVSLCIY | 0.476 ± 0.014
STSSVMVFLRMC | 0.161 ± 0.042
SVAGFFLLLLLS | 0.338 ± 0.0072
SVECLCLFVACR | 0.288 ± 0.0032
SVFGVRARFGSV | 0.7738 ± 0.0016
SVFVVVVLVFWY | 0.316 ± 0.016
SVIAYTKPLWFR | 0.486 ± 0.013
SVLRCPVILLAY | 0.0527 ± 0.02
SVSFFSLCTSSL | 0.511 ± 0.021
SWTAYSYQWVFF | 0.215 ± 0.031
SWVSVLSELLAC | 0.2873 ± 0.0022
SYCFCCCVLFWG | 0.502 ± 0.018
SYFSVTLFFTVI | 0.386 ± 0.024
SYRFFLFLAVFV | 0.5379 ± 0.0032
SYVFCYICGVQS | 0.552 ± 0.025
SYVRLDLFFFLG | 0.5357 ± 0.0037
TGVPNPSVAVMC | 0.625 ± 0.0069
TIYGYEVTRKIG | 0.145 ± 0.018
TLLAFLIYLCFL | 0.499 ± 0.043
TPVIPLIRVRDC | 0.456 ± 0.0093
TTGLLPSAYIWS | 0.716 ± 0.04

Sequence | protein stability index
TVWRRIRHACAH | 0.365 ± 0.0047
VAVYVGVGVSLG | 0.511 ± 0.039
VAWFFFAYAFFM | 0.407 ± 0.0093
VCALHSAPLLIF | 0.467 ± 0.00048
VCLVLVVVWWSG | 0.313 ± 0.012
VCRGWCVVRYIL | 0.259 ± 0.0046
VCVFNLTLVGTH | 0.4341 ± 0.0033
VFFFFSLVNFRV | 0.549 ± 0.03
VFFLFLVFLTVV | 0.263 ± 0.0089
VFFRCVCCLSVF | 0.352 ± 0.007
VFFVLIFLLFLF | 0.469 ± 0.0008
VFGSVAALRLLM | 0.414 ± 0.036
VFLFSWYIFSVF | 0.169 ± 0.0034
VFLRCRSLSMRV | 0.529 ± 0.012
VFMTLHCITIYK | 0.547 ± 0.0084
VFSCFLFLVVLV | 0.2247 ± 0.0019
VFVFLFVFLFLL | 0.253 ± 0.015
VGCHISAFSDLI | 0.7489 ± 0.0017
VGFIVCFFFSFG | 0.453 ± 0.0084
VGIVWELGCWMG | 0.508 ± 0.0067
VGTGVGEGGGVV | 0.719 ± 0.022
VICVVLSKVFLF | 0.483 ± 0.013
VIGFGEVWIRCV | 0.0868 ± 0.013
VILYCSNVAVCS | 0.399 ± 0.011
VIVKSRTTLYIS | 0.193 ± 0.023
VIWVLGALASWG | 0.618 ± 0.015

Sequence | protein stability index
VKVIILYKIIEV | 0.549 ± 0.08
VLAYFCYVVFVI | 0.354 ± 0.0069
VLCMSIFIVFGI | 0.303 ± 0.011
VLLLLGGIVCVM | 0.395 ± 0.019
VLLLRRPLLVFS | 0.187 ± 0.0061
VLLVRIFLCWVC | 0.1826 ± 0.001
VLLYRIAPRLLH | 0.4082 ± 0.0026
VLSLYWLIISRL | 0.566 ± 0.021
VLVSVSLRVCMV | 0.178 ± 0.016
VLVVLRSEVSLS | 0.371 ± 0.0053
VLVVVAFVALPR | 0.461 ± 0.031
VLWSCCGGVRVR | 0.612 ± 0.018
VLWVYLFLFVIF | 0.325 ± 0.019
VLYSRFPPPLIA | 0.5375 ± 0.0029
VMWFVLVGLCIL | 0.496 ± 0.006
VNTLCCVFRCNL | 0.8905 ± 0.0035
VPRGAALIFLCF | 0.582 ± 0.0063
VPRSLYSVLRLA | 0.11 ± 0.0054
VPSPWLIRSLMS | 0.518 ± 0.039
VQLFCLRREMII | 0.506 ± 0.013
VRELGVGGWRRQ | 0.405 ± 0.0063
VRLLLIFRLLVI | 0.447 ± 0.02
VRNYWKYVVIFP | 0.674 ± 0.068
VSCFIVSFWVFL | 0.495 ± 0.052
VSFEFSVLWTVF | 0.469 ± 0.005
VSLCVVYGLVVG | 0.411 ± 0.0082

What follows are sequences tested on Saccharomyces cerevisiae in the same assay as above. Conditions: genetic background: wild type; temperature: 30 C.

Sequence | protein stability index
SRRRRLVSKFLA | 0.223 ± 0.017
SRRSIGAYLFVS | 0.339 ± 0.026
SRSFWHAIVFLA | 0.122 ± 0.085
SRWMWFDWLRRA | 0.417 ± 0.065
SSCFLLFRVVWR | 0.367 ± 0.011
SSFDFVVSLCIY | 0.454 ± 0.041
STSSVMVFLRMC | 0.281 ± 0.057
SVAGFFLLLLLS | 0.285 ± 0.012
SVECLCLFVACR | 0.259 ± 0.013
SVFGVRARFGSV | 0.756 ± 0.014
SVFVVVVLVFWY | 0.269 ± 0.0066
SVIAYTKPLWFR | 0.475 ± 0.0065
SVLRCPVILLAY | 0.0975 ± 0.012
SVSFFSLCTSSL | 0.487 ± 0.012
SWTAYSYQWVFF | 0.128 ± 0.014
SWVSVLSELLAC | 0.336 ± 0.022
SYCFCCCVLFWG | 0.407 ± 0.026
SYFSVTLFFTVI | 0.38872 ± 0.00027
SYRFFLFLAVFV | 0.461 ± 0.021
SYVFCYICGVQS | 0.428 ± 0.06
SYVRLDLFFFLG | 0.568 ± 0.11
TGVPNPSVAVMC | 0.498 ± 0.098
TIYGYEVTRKIG | 0.155 ± 0.0023
TLLAFLIYLCFL | 0.416 ± 0.012
TPVIPLIRVRDC | 0.29 ± 0.023
TTGLLPSAYIWS | 0.762 ± 0.011

Sequence | protein stability index
TVWRRIRHACAH | 0.376 ± 0.038
VAVYVGVGVSLG | 0.423 ± 0.0046
VAWFFFAYAFFM | 0.321 ± 0.0039
VCALHSAPLLIF | 0.462 ± 0.023
VCLVLVVVWWSG | 0.292 ± 0.024
VCRGWCVVRYIL | 0.281 ± 0.064
VCVFNLTLVGTH | 0.366 ± 0.023
VFFFFSLVNFRV | 0.486 ± 0.041
VFFLFLVFLTVV | 0.259 ± 0.01
VFFRCVCCLSVF | 0.307 ± 0.026
VFFVLIFLLFLF | 0.421 ± 0.011
VFGSVAALRLLM | 0.378 ± 0.095
VFLFSWYIFSVF | 0.184 ± 0.015
VFLRCRSLSMRV | 0.465 ± 0.03
VFMTLHCITIYK | 0.458 ± 0.0029
VFSCFLFLVVLV | 0.242 ± 0.0034
VFVFLFVFLFLL | 0.177 ± 0.043
VGCHISAFSDLI | 0.762 ± 0.017
VGFIVCFFFSFG | 0.432 ± 0.02
VGIVWELGCWMG | 0.425 ± 0.019
VGTGVGEGGGVV | 0.711 ± 0.011
VICVVLSKVFLF | 0.444 ± 0.014
VIGFGEVWIRCV | 0.141 ± 0.0034
VILYCSNVAVCS | 0.294 ± 0.0038
VIVKSRTTLYIS | 0.155 ± 0.0099
VIWVLGALASWG | 0.556 ± 0.098

Sequence | protein stability index
VKVIILYKIIEV | 0.381 ± 0.038
VLAYFCYVVFVI | 0.314 ± 0.016
VLCMSIFIVFGI | 0.371 ± 0.052
VLLLLGGIVCVM | 0.327 ± 0.026
VLLLRRPLLVFS | 0.244 ± 0.021
VLLVRIFLCWVC | 0.16 ± 0.039
VLLYRIAPRLLH | 0.303 ± 0.03
VLSLYWLIISRL | 0.4672 ± 0.00061
VLVSVSLRVCMV | 0.162 ± 0.039
VLVVLRSEVSLS | 0.284 ± 0.015
VLVVVAFVALPR | 0.372 ± 0.016
VLWSCCGGVRVR | 0.516 ± 0.036
VLWVYLFLFVIF | 0.255 ± 0.05
VLYSRFPPPLIA | 0.4803 ± 0.0032
VMWFVLVGLCIL | 0.473 ± 0.033
VNTLCCVFRCNL | 0.805 ± 0.045
VPRGAALIFLCF | 0.517 ± 0.055
VPRSLYSVLRLA | 0.2 ± 0.025
VPSPWLIRSLMS | 0.409 ± 0.023
VQLFCLRREMII | 0.381 ± 0.0047
VRELGVGGWRRQ | 0.283 ± 0.01
VRLLLIFRLLVI | 0.299 ± 0.09
VRNYWKYVVIFP | 0.569 ± 0.15
VSCFIVSFWVFL | 0.471 ± 0.012
VSFEFSVLWTVF | 0.46 ± 0.018
VSLCVVYGLVVG | 0.373 ± 0.017

Reference: the supplement of paper PMC10724198
